Measured values as given in the nanobody polyreactivity screen of Harvey et al. (2022).

test: yeast display, Sf9 membrane polyspecificity reagent, FACS + sequencing; frameworks hold sequencing errors
Method in brief: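 Sorting gates, low and high (top ~1%), were placed on anti-HA fluorescence to track expression and on streptavidin fluorescence to track reagent binding. A clone's polyreactivity label is taken from the gate it came out of. The reagent was 10% biotinylated, detergent-solubilized Sf9 membrane, applied for 1 hour at 4 °C to galactose-induced yeast display cells.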

Sequence	polyreactivity (PSR sort gate)
QVQLVESGGGLVQAGGSLRLSCAASGRTFQYYAMGWYRQAPGKERELVAAISGIGTSTSYADSVKGRFTISRDNAKNTVYLQMNSLKPEDTAVYYCAARLLVPGSPWYTNYYWGQGTQVTVSS	low polyreactivity
QVQLVESGGGLVQAGGSLRLSCAASGRTFQYYAMGWYRQAPGKERELVAAITWSGTSTYYADSVKGRFTISRDNAKNTVYLQMNSLKPEDTAVYYCNKYSPYITYDYDYWGQGTQVTVSS	high polyreactivity
QVQLVESGGGLVQAGGSLRLSCAASGRTFQYYAMGWYRQAPGKERELVATISYSGGSTSYADSVKGRFTISRDNAKNTVYLQMNSLKPEDTAVYYCAADYYYGDALSPSYPHWDFYYWGQGTQVTVSS	low polyreactivity
QVQLVESGGGLVQAGGSLRLSCAASGRTFRAYAMGWYRQAPGKERELVAAITGGGSTKYADSVKGRFTISRDNAKNTVYLQMNSLKPEETAVYYCAATGRSGVLSSYYYWGQGTQVTVSS	high polyreactivity
QVQLVESGGGLVQAGGSLRLSCAASGRTFRDNAMGWYRQAPGKERELVAAISSGDRTNYADSVKGRFTISRDNAKNTVYLQMNSLKPEETAVYYCAAVRYNSRVSTTPSEMYYWGQGTQVTVSS	low polyreactivity
QVQLVESGGGLVQAGGSLRLSCAASGRTFRDNAMGWYRQAPGKERELVAAISWSGGSTYYADSVKGRFTISRDNAKNTVYLQMNSLKPEDTAVYYCAASGYYRYTPFRYDHWGQGTQVTVSS	low polyreactivity
QVQLVESGGGLVQAGGSLRLSCAASGRTFRDYVMGWYRQAPGKERELVAAISTRGASTYYADSVKGRFTISRDYAKNTVYLQMNSLKPEDTAVYYCAARSTRRGNEYDYWGQGTQVTVSS	high polyreactivity
QVQLVESGGGLVQAGGSLRLSCAASGRTFRFNTMGWYRQAPGKERELVAAITSSGGSTYYADSVKGRFTISRDNAKNTVYLQMNSLKPEDTAVYYCAKRFYYRNRFDYWGQGTQVTVSS	low polyreactivity
QVQLVESGGGLVQAGGSLRLSCAASGRTFRFYAMGWYRQAPGKERELVAAITYGGGSTYYADSVKGRFTISRDNAKNTVYLQMNSLKPEDTAVYYCAARAGRVPSWSGRTRYYYGGQGTQVTVSS	high polyreactivity
QVQLVESGGGLVQAGGSLRLSCAASGRTFRFYVMGWYRQAPGKERELVAAISRGGGSTYYADSVKGRFTISRDNAKNTVYLQMNSLKPEDTAVYYCAAKPYKTRSSYWGDYYWGQGTQVTVSS	high polyreactivity
QVQLVESGGGLVQAGGSLRLSCAASGRTFRGNAIGWYRQAPGKERELVAAIRWNGGSTYYADSVKGRFTISRDNAKNTVYLQMNSLKPEDTAVYYCAVSYWYSRYDYWGQGTQVTVSS	high polyreactivity
QVQLVESGGGLVQAGGSLRLSCAASGRTFRGNAMGWYRQAPGKERELVAAISGSGGRTYYADSVKGRFTISRDNAKNTVYLKMNSLKPEDTAVFYCAAKRGKTYQRFDYWGQGTQVTVSS	high polyreactivity
QVQLVESGGGLVQAGGSLRLSCAASGRTFRGNAMGWYRQAPGKERELVAAISRGGSTKYADSVKGRFTISGDNAKNTVYLQMNSLKPEDTAVYYCAADNRKSRYDYWGQGTQVTVSS	high polyreactivity
QVQLVESGGGLVQAGGSLRLSCAASGRTFRGNAMGWYRQAPGKERELVAAISRRGVSTYYADSVKGRFTISRDNAKNTVYLQMNSLKPEDTAVYYCNADTSYQRVGGNYWGQGTQVTVSS	high polyreactivity
QVQLVESGGGLVQAGGSLRLSCAASGRTFRGNAMGWYRQAPGKERELVAAISWSGGRTYYADSVKGRFTISRDNAKNTVYLQMNSLKPEDTAVYYCAAGVPKNGQAGYDYWGQGTQVTVSS	high polyreactivity
QVQLVESGGGLVQAGGSLRLSCAASGRTFRGNAMGWYRQATGKERELVDVITASGSTTYADSVKGRFTISRDNAKNTVYLQLYSLKPEDTAVYYCAKYVPWYTLWLGGTDRDYWGQGTQVTVSS	low polyreactivity
QVQLVESGGGLVQAGGSLRLSCAASGRTFRGNAMRWYRQAPGKERELVAAIRWNGGSTYYADSVKGRFTISRDNAKNTVYLQMNSLKPEDSAVYYCAVSYWYSRYDYWGQGTQVTVSS	high polyreactivity
QVQLVESGGGLVQAGGSLRLSCAASGRTFRGNVMGWYRQAPGKEREFVAAITKSDGSTYYADSVKGRFTISRDNAKNTVYLQMNSLKPEDTAVYYCAARTARTGWPWFRYDYWGQGTQVTVSS	low polyreactivity
QVQLVESGGGLVQAGGSLRLSCAASGRTFRGYAMGWYRQAPGKERELVAAITWRGGSTKYADSVKGRFTISRDNAKNTVYLKMNSLKPEDTAVYYCAAARHYLTFWGQGSQVTVSS	high polyreactivity
QVQLVESGGGLVQAGGSLRLSCAASGRTFRGYAMGWYRQAPGKETELVAAISSGGSTYYADSVKGRFTSSRDNAKYTVYLQMNSLKPEDTAVYYCARAVGNYRTLEFDYWGQGTQVTVSS	low polyreactivity

Sequence	polyreactivity (PSR sort gate)
QVQLVESGGGLVQAGGSLRLSCAASGRTFRGYVMGWYRQAPGKERELVASISYSGGSTYYADSVKGRFTISRDNAKNTVYLQMNSLKPEDTAVYYCAARKGYDQYRWRYSQNNYWGQGTQVTVSS	high polyreactivity
QVQLVESGGGLVQAGGSLRLSCAASGRTFRLYAMGWYRQAPGKERELDAAIRTDDSTNYADSVKGRFTISRDNAKNTVYLQMNSLKPEDTAVYYCNAEGQFTWLGRRRHKFEYWGQGTQVTVSS	low polyreactivity
QVQLVESGGGLVQAGGSLRLSCAASGRTFRLYAMGWYRQAPGKERELVAAIRSGGSTNYADSVKGRFTISRDNEKNTVYLQMNSLKPEYTAVYYCAVDGYFFQGPYYYWGQGTQVTVSS	low polyreactivity
QVQLVESGGGLVQAGGSLRLSCAASGRTFRLYAMGWYRQAPGKERELVAAISYSDGRTYYADSVKGRFTISRDNAKNTVYLQMNSLKPEDTAVYYCAAETLYVSPYFYVVQYDYWGQGTQVTVSS	high polyreactivity
QVQLVESGGGLVQAGGSLRLSCAASGRTFRLYAMGWYRQAPGKERELVAAITFRGGRTYYADSVKGRFTISRDNAKNTVYLQMNSLKPEYTAVYYCNAVTYSSPYRFDYWGQGTQVTVSS	low polyreactivity
QVQLVESGGGLVQAGGSLRLSCAASGRTFRLYAMGWYRQAPGKERELVAVIRAGDSTNYADSVKGRFTISRDNAKNTVYLQLNSLKPDDTAVSYCAADVLYYYGKYDYWGQGTQVTVSS	high polyreactivity
QVQLVESGGGLVQAGGSLRLSCAASGRTFRNNTMGCYRQAPGKERELVATITGSGGSTYYADSVKGRFTISRDNSKNTVYLQMNSLKPEDTAVYYCAAVGDQNEYVYWGQGTQVTVSS	low polyreactivity
QVQLVESGGGLVQAGGSLRLSCAASGRTFRNYAMGWSRPAPWKERELVATITSSGASTYYADSVKGRFTISRDNAKNTVYLQMNSLKPEDTAVYYCAARPYTGRYFLCYYYWGQGTQVTVSS	high polyreactivity
QVQLVESGGGLVQAGGSLRLSCAASGRTFRPYAMGWSRQAPGKERELVAAIDSSGTSTYYADSVKGRFTISRDNAKNTVYLQMNSLKPEDTAVYYCAKAWPDHWYSRYDYWGQGTQVTVSS	low polyreactivity
QVQLVESGGGLVQAGGSLRLSCAASGRTFRPYAMGWYRPAPGKERELVAAISSRGSSTYYADSVKGRFTISRDNAKNTVYLQMNSLKPEDTAVYYCAARSYWGGLRYDYWGQGTQVTVSS	high polyreactivity
QVQLVESGGGLVQAGGSLRLSCAASGRTFRPYAMGWYRQAPGKERELVAAISQSVGSTYYADSVKGRFTISRDNAKNTVYLQMNSLKPEDTAVYYCAADRWSATHYVWYDYWGQGTQVTVSS	high polyreactivity
QVQLVESGGGLVQAGGSLRLSCAASGRTFRPYAMGWYRQAPGKERQFVAAISSSGGSTYYADSVKGRFSISRDNAKNTVYLLMNSLKPEDTAVYYCATGRKNAAQRWGYYYWGQGTQVTVSS	high polyreactivity
QVQLVESGGGLVQAGGSLRLSCAASGRTFRPYDMGWYRQAPGKERELVATITTNGGSTYYADSVKGRFTISRDNAKNTVYLQMNSLKPEDTAVYYCATDNWWQTYHYQGGYYWGQGTQVTVSS	low polyreactivity
QVQLVESGGGLVQAGGSLRLSCAASGRTFRQYAMGWYRQAPGKERELVATISSGGSTYYADSVKGRFTISRDNAKNTVYLHMNSLKPEDTAVYYCNAEGQWSRAPRDYWGQGTQVTVSS	low polyreactivity
QVQLVESGGGLVQAGGSLRLSCAASGRTFRRNAMGWYRQAPGKERELVAAISSRGGSTYYADSVKGRFTISRDNAKNSVYLQMNSLKPEDTAVYYCNKGTPPTGTLGDYEYWGQGTQVTVSS	high polyreactivity
QVQLVESGGGLVQAGGSLRLSCAASGRTFRRYAMGWYRQAPGKERELVAAISRSGGSTYYADSVKGRFTISRDNAKNTVYLQMNSLKPEETAVYYCAAGIWSKLVEPFDYWGQGTQVTVSS	high polyreactivity
QVQLVESGGGLVQAGGSLRLSCAASGRTFRRYAMGWYRQAPGKERELVAVITRGGNTNYADSVKGRFTISRDNAKNTVYLQMNSLKPEDTAVYYCAAELYNYGYDYWGQGTQVTVSS	low polyreactivity
QVQLVESGGGLVQAGGSLRLSCAASGRTFRSDNAMGWYRQAPGKERELVAAISQGGGTYYADSVKGRFTISRDNAKNTVYLQMNSLKPEDTAVYYCARDAYYADPSLWYYTYDYWGQGTQVNVSS	low polyreactivity
QVQLVESGGGLVQAGGSLRLSCAASGRTFRSNAMGWYRQAPGKERELVATISGRGGSTYYADSVKGRFTISRDNAKNTVYLQMNSLKPEDTAVYYCAKRTTLIRDYEYWGQGTQVTVSS	high polyreactivity
QVQLVESGGGLVQAGGSLRLSCAASGRTFRSNTKGGYRQAPGKERELVAAISWSGTRTYYADSVKGRFTISRDNAKNSVYLQMNSLKPEDTAVYYCNAVGFDQPRYYYWGQGTQVTVSS	high polyreactivity
